Measured values published in patent US20200255542A1 (Merck Sharp & Dohme, published 2020).
Each block holds one binder with its values, some of them ahead of it.

Assays:
[1] = target: T1, human coagulation Factor XI (FXI) zymogen (human, UniProt P03951 19-625); assay: cell-based or functional assay
[2] = target: T2, human FXIa (human, UniProt P03951 19-625); assay: cell-based or functional assay
[3] = target: T1, human coagulation Factor XI (FXI) …; assay: cell-based or functional assay; remark: listed apart in the source
[4] = target: T3, Cynomolgus monkey plasma Kallikrein (cynomolgus monkey, UniProt A0A2K5VTJ9 20-638); assay: SPR (Biacore T200), mAb captured on anti-human IgG (Fc) chip, single analyte concentration;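 also: Anti-FXI mAbs captured about 500 RU, anti-RSV mAb as reference, coagulation cascade proteins injected at 500 nM (FXI 5 nM), 25 °C, HBS-EP+ pH 7.4, 1:1 fit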
T3 construct: Recombinant, Merck Sharp & Dohme; also called NHP plasma kallikrein; lot 65AJE; not shown: C-terminal His tag
T3 sequence (A0A2K5VTJ9 entry or part of it): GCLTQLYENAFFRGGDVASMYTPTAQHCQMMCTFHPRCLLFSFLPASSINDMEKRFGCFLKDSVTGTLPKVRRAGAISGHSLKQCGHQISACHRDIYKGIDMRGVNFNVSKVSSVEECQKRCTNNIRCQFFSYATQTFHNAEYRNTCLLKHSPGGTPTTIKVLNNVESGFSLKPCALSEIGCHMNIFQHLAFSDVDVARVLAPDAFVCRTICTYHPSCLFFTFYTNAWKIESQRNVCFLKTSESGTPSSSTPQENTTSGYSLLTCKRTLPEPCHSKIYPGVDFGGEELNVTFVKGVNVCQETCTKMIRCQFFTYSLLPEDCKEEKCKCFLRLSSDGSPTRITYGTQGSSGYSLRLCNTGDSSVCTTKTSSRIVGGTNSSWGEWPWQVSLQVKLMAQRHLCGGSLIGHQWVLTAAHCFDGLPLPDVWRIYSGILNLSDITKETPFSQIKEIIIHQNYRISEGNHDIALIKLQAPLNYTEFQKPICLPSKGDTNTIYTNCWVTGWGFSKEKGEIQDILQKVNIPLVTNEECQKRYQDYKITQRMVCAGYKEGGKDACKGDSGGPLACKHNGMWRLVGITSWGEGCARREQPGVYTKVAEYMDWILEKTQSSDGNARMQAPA

[5] = target: T4, Human plasma preKallikrein (human, UniProt P03952 20-638); assay: as above
T4 construct: also called HPK 1302
T4 sequence (P03952 20-638 limits assumed): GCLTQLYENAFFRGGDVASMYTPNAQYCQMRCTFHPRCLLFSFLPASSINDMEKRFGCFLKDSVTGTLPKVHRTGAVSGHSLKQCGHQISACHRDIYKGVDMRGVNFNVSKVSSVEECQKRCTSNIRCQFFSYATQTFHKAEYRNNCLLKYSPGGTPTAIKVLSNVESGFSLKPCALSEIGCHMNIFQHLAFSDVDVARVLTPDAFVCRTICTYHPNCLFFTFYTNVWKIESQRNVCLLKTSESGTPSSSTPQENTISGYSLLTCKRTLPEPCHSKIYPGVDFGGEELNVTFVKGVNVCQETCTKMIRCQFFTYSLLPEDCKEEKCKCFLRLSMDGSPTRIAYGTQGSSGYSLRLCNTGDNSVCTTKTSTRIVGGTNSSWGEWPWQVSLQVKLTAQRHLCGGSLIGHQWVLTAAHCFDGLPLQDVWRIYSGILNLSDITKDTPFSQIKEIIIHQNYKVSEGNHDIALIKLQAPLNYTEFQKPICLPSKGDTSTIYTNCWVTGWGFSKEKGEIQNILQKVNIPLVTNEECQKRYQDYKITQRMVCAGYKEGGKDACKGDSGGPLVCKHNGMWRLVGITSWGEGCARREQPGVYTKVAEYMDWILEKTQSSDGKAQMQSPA
Procedure: (§1) Anti-FXI mAbs were captured on a CM5 sensor chip immobilized with anti-human IgG (Fc) capture kit (GE Healthcare) at approximately 500 RU to minimize potential background from co-purifying Igs in plasma derived proteins. Negative control antibody, anti-respiratory syncytial virus (RSV) monoclonal antibody (mAb), was used as a reference and to help reduce background binding of plasma-derived proteins. Binding kinetics was measured using an analyte concentration of FXI at 5 nM; all other coagulation cascade proteins were used at an analyte concentration of 500 nM. Single concentration injections (n=2) were run at 30 μL/min, 25° C., HBS-EP+, pH 7.4.
(§2) Biacore T200 evaluation software was used to fit data to a 1:1 binding model to determine the association rate constant, kₐ (M⁻¹ s⁻¹, where “M” equals molar and “s” equals seconds) and the dissociation rate constant, kd (s⁻¹). These rate constants were used to calculate the equilibrium dissociation constant, KD (M).

[6] = target: T5, Human plasma Kallikrein (human, UniProt P03952 20-638); assay: as above
T5 construct: also called HPKa 1303
T5 sequence (P03952 20-638 limits assumed): as above
Procedure: as §1, §2

[7] = target: Human Factor II (α-thrombin) (human, UniProt P00734 328-622); assay: as above
Procedure: as §1, §2

[8] = target: T6, Human Factor VII (human, UniProt P08709 61-466); assay: as above
T6 construct: also called FVII; HCVII-0030
T6 sequence (looked up): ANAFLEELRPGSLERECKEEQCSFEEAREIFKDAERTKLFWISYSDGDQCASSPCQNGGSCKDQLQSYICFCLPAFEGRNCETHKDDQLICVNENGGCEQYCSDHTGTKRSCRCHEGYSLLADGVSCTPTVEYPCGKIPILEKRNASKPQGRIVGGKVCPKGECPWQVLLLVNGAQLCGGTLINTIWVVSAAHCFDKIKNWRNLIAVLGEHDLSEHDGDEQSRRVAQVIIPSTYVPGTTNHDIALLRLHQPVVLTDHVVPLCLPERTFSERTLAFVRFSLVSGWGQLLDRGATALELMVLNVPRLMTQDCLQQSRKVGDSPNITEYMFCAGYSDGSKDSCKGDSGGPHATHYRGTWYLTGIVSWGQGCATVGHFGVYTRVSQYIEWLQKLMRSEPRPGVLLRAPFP
Procedure: as §1, §2

[9] = target: T7, Human Factor VIIa Protease (human, UniProt P08709 61-466); assay: as above
T7 construct: also called FVIIa; HCVIIA-0031
T7 sequence (looked up): T6 sequence (looked up)
Procedure: as §1, §2

[10] = target: T8, Human Factor IX (human, UniProt P00740 47-461); assay: as above
T8 construct: also called FIX; FIX zymogen
Procedure: as §1, §2

[11] = target: T9, Human Factor IXa Protease (human, UniProt P00740 47-191; P00740 227-461); assay: as above
T9 construct: also called FIXa; HFIXa 1080
Procedure: as §1, §2

[12] = target: T10, Human Factor X (human, UniProt P00742 41-488); assay: as above
T10 construct: also called FX; HFX1010
Procedure: as §1, §2

[13] = target: T11, Human Factor Xa Protease (human, UniProt P00742 41-179; P00742 235-488, limits assumed); assay: as above
T11 construct: also called FXa; HFXa 1011
Procedure: as §1, §2

[14] = target: T12, Human Factor XII (human, UniProt P00748 20-615); assay: as above
T12 construct: also called FXII; HFXII 1212
T12 sequence (looked up): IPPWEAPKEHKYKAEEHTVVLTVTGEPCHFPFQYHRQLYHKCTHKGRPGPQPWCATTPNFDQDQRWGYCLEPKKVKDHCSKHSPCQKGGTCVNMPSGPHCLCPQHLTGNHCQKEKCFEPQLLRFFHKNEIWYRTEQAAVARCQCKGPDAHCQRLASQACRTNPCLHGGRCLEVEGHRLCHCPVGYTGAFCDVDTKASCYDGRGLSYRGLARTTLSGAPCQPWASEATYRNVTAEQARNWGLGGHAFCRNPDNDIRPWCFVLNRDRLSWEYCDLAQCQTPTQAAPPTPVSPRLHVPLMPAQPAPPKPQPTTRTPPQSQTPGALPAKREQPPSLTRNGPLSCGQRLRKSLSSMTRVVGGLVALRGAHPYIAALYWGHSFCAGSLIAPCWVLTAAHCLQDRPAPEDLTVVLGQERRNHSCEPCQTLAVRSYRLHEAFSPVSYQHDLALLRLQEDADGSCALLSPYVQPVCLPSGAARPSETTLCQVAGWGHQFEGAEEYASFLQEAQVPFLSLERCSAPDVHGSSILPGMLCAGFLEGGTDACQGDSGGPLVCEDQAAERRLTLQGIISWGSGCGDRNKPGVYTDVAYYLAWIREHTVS
Procedure: as §1, §2

[15] = target: T13, Human Factor XIIa Protease (human, UniProt P00748 20-615, limits assumed); assay: as above
T13 construct: also called FXIIa; Human Factor Xlla Protease
T13 sequence (looked up): T12 sequence (looked up)
Procedure: as §1, §2

[16] = target: T14, Human Factor II (Prothrombin) (human, UniProt P00734 44-622); assay: as above
T14 construct: also called FII; lot 41AHG
Procedure: as §1, §2

[17] = target: T15, Rhesus monkey plasma Kallikrein (rhesus monkey, UniProt A0A1D5Q7U7 20-638); assay: as above
T15 construct: Recombinant, Merck Sharp & Dohme; also called NHP plasma kallikrein; lot 00AJF; not shown: C-terminal His tag
T15 sequence (A0A1D5Q7U7 entry or part of it): as the sequence (A0A2K5VTJ9 entry or part of it) above, with T24N counted along it

[18] = target: T1, human coagulation Factor XI (FXI) …; assay: SPR (ProteOn XPR36), antibody captured by anti-human IgG Fc, FXI as analyte; mean ± SD, N=3
Procedure: (§3) After capture of anti-FXI antibodies, running buffer (1×HBS-N, 5 mM CaCl₂, 0.005% P20, pH 7.4) was injected across all horizontal flow channels (A1-A6) for 5 minutes and allowed to dissociate for 20 minutes at 25 μL/min to remove any non-specifically bound anti-FXI antibodies from the chip surface.
(§4) After capture of anti-FXI antibodies, running buffer was injected across all horizontal flow channels (A1-A6) for 5 minutes and allowed to dissociate for 20 minutes at 25 L/minutes to remove non-specifically bound anti-FXI antibodies from the chip surface.

[19] = target: T16, cynomolgus monkey FXI zymogen (cynomolgus monkey, UniProt A0A2K5VVW4 19-624); assay: as above
T16 construct: also called cyno FXI; NHP FXI
T16 sequence (A0A2K5VVW4 entry or part of it): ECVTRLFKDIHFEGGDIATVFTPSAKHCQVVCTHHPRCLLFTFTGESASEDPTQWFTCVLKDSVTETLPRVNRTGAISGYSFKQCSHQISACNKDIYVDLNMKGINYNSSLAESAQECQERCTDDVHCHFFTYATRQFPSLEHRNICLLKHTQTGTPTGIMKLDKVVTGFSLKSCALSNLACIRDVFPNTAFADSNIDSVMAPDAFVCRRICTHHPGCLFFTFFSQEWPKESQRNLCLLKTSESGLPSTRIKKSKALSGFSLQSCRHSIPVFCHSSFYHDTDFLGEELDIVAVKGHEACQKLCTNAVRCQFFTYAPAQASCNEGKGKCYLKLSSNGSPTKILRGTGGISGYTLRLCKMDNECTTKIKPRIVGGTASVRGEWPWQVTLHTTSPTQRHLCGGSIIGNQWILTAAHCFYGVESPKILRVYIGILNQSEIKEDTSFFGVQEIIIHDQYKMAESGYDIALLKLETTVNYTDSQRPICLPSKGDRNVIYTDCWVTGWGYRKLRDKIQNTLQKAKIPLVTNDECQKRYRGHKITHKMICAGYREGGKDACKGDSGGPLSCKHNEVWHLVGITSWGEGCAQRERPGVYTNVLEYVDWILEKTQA
Procedure: as §3, §4

[20] = target: T17, rhesus monkey FXI zymogen (rhesus monkey, UniProt F6PJ95 19-624); assay: as above
T17 construct: also called Rhesus FXI; NHP FXI
T17 sequence (F6PJ95 entry or part of it): as the sequence (A0A2K5VVW4 entry or part of it) above, with N101D, E113K, V126I, A191V counted along it
Procedure: as §3, §4

[21] = target: T2, human FXIa; assay: SPR (ProteOn XPR36), antibody captured by anti-human IgG Fc, FXIa as analyte; mean ± SD, N=3
Procedure: as §3, §4

[22] = target: T18, cynomolgus monkey FXIa (cynomolgus monkey, UniProt A0A2K5VVW4 19-624); assay: as above
T18 construct: also called NHP FXIa
T18 sequence (A0A2K5VVW4 entry or part of it): as the sequence (A0A2K5VVW4 entry or part of it) above
Procedure: as §3, §4

[23] = target: T19, rhesus monkey FXIa (rhesus monkey, UniProt F6PJ95 19-624); assay: as above
T19 construct: also called NHP FXIa
T19 sequence (F6PJ95 entry or part of it): as the sequence (A0A2K5VVW4 entry or part of it) above, with N101D, E113K, V126I, A191V counted along it
Procedure: as §3, §4

FXIIa Activation + HK Inhibition (IC50, nM) [1]: 7.6 nM
FXIIa Activation no HK Inhibition (IC50, nM) [1]: 34 nM
FXIa IC50 nM (native, full-length substrate; activation of FIX to FIXa) [2]: 1 nM
FXIa IC50 nM (tri-peptide substrate) [2]: > 1000 nM
FXI Autoactivation IC50 nM (on dextran sulfate) [3]: 3.3 nM
binding result [4]: no binding (tested: 500 nM)
binding result [5]: no binding (tested: 500 nM)
binding result [6]: no binding (tested: 500 nM)
binding result [7]: no binding (tested: 500 nM)
binding result [8]: no binding (tested: 500 nM)
binding result [9]: no binding (tested: 500 nM)
binding result [10]: no binding (tested: 500 nM)
binding result [11]: no binding (tested: 500 nM)
binding result [12]: no binding (tested: 500 nM)
binding result [13]: no binding (tested: 500 nM)
binding result [14]: no binding (tested: 500 nM)
binding result [15]: no binding (tested: 500 nM)
binding result [16]: no binding (tested: 500 nM)
binding result [17]: no binding (tested: 500 nM)
Kd [18]: 0.1 nM
Kd [19]: 0.18 nM
Kd [20]: 0.0529 nM
Kd [21]: 0.0554 nM
Kd [22]: 0.0892 nM
Kd [23]: 0.175 nM
B1: αFXI-18611 IgG4 HC (S228P)(E1)(L105)/LC Kappa (antibody, V domains shown)
VH: EVQLQESGPGLVKPSETLSLTCAVSGYSISSGYFWGWIRQPPGKGLEWIGSILHSGVTYYNPSLKSRVTISVDTSKNQFSLKLSSVTAADTAVYYCARDRTTVSLIEYFQHWGQGTLVTVSS
VL: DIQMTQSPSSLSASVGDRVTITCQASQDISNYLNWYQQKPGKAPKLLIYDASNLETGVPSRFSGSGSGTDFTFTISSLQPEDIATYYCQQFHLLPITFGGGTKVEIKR
notes: Fully human IgG4 (S228P)/kappa; also called αFXI-18611 mAb

FXIIa Activation + HK Inhibition (IC50, nM) [1]: 6 nM
FXIIa Activation no HK Inhibition (IC50, nM) [1]: 14 nM
FXIa IC50 nM (native, full-length substrate; activation of FIX to FIXa) [2]: 0.4 nM
FXIa IC50 nM (tri-peptide substrate) [2]: > 1000 nM
FXI Autoactivation IC50 nM (on dextran sulfate) [3]: 5.5 nM
binding result [5]: no binding (tested: 500 nM)
binding result [6]: no binding (tested: 500 nM)
binding result [7]: no binding (tested: 500 nM)
binding result [8]: no binding (tested: 500 nM)
binding result [9]: no binding (tested: 500 nM)
binding result [10]: no binding (tested: 500 nM)
binding result [11]: no binding (tested: 500 nM)
binding result [12]: no binding (tested: 500 nM)
binding result [13]: no binding (tested: 500 nM)
binding result [14]: no binding (tested: 500 nM)
binding result [15]: no binding (tested: 500 nM)
binding result [16]: no binding (tested: 500 nM)
binding result [17]: no binding (tested: 500 nM)
Kd [18]: 0.0226 nM
Kd [19]: 0.013 nM
Kd [20]: 0.0722 nM
Kd [21]: 0.0374 nM
Kd [22]: 0.0195 nM
Kd [23]: 0.149 nM
B2: αFXI-18623p IgG4 HC (S228P)(Q1)/LC Kappa (antibody, V domains shown)
VH: QVQLQESGPGLVKPSQTLSLTCTVSGGSIYSGAYYWSWIRQHPGKGLEWIGSIHYSGLTYYNPSLKSRVTISVDTSKNQFSLKLSSVTAADTAVYYCARDVDDSSGDEHYGMDVWGQGTTVTVSS
VL: DIQMTQSPSSVSASVGDRVTITCRASQGIDSWLAWYQQKPGKAPKLLIYAASSLQSGVPSRFSGSGSGTDFTLTISSLQPEDFATYYCQQYHIVPITFGGGTKVEIKR
notes: Fully human IgG4 (S228P)/kappa; also called αFXI-18623p-IgG4 (S228P) (Q1)/LC Kappa
